Test results as given in the supplement of paper PMC9170038.

Test system: MS2 coat protein
Experiment: apparent KD of MS2 coat protein; designed switch direction (-1 OFF switch, 1 ON switch): -1; higher = weaker reporter binding
Summary of the method: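 An oligonucleotide input, 200 uM small-molecule ligand, or no input was present during titration of SNAP-549-labelled MS2 coat protein, which was doubled from 0.7 or 1.5 nM to 3 µM. Designed RNA switches had been transcribed on Illumina chips by stalled E. coli RNA polymerase. Apparent KD per design is the median over clusters of curves fitted to normalised cluster fluorescence.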

[1] = Eterna round: R95, input ligand: FMN 200 uM
[2] = Eterna round: R95, input ligand: microRNA oligo, concentration not stated
[3] = Eterna round: R95, input ligand: none
[4] = input ligand: microRNA oligo, concentration not stated

Row | Sequence | apparent KD of MS2 coat protein [1] [nM] | apparent KD of MS2 coat protein [2] [nM] | apparent KD of MS2 coat protein [3] [nM] | apparent KD of MS2 coat protein (input ligand: FMN 200 uM) [nM] | apparent KD of MS2 coat protein [4] [nM] | apparent KD of MS2 coat protein (input ligand: none) [nM]
1 | UUUUUCAGGCCAGAUCCUCACAUGAGGAUCACCCAUGUGCUCGUCUGUUUUCGCACUAUCUUUUUUUUGAUAGUGCU [Level Boss var2-13] (puzzle: Sensor v3, turn-off variant 1) | 291 | 26.8 | 309 |  |  | 
2 | CACCGUUAGAGAGGAUAUCGUACAUGAGGAUCACCCAUGUAAUAAAUGAGAAUUUCGGAUGUAUGCGAGAAGGCUCAAAUCGGC [Ostracism 39 - Jieux - Exclusion NG 2] (Eterna round: R96, puzzle: Exclusion NG 2) |  |  |  | 42.1 | 42.5 | 60
3 | CUUCAUUGUUGAGGAUAUAAUUAUAGGAUGUAGUUAGAAGGCGAACAUGAGGAUCACCCAUGUCAGGCAUGGAGACCCUUGACC [Eternabot solution 8] (Eterna round: R96, puzzle: Exclusion NG 1) |  |  |  |  | 308 | 
4 | AUUAAACAUGUAGGAUAUGCGUGGCGAAGCUAUGCAGAAGGACAUGAGGAUCACCCAUGUUUUAGCGUCUGCGUACAGAUGCAA [JL ENG1 1.38] (Eterna round: R96, puzzle: Exclusion NG 1) |  |  |  | 218 | 17.8 | 30.3
5 | GAGAAACAUGAGGAUCACCCAUGUAAGGAUAUGCUGAAAACAACGGAUAAAACGUGCAGCAGAAGGUACAAAGG [Mat - Mod of my Eli Mod D41] (puzzle: Exclusion 1) | 76.5 | 72.1 | 72.4 |  |  | 
6 | AAUUUGCAAGCGAGAUCCCACAUGAGGAUCACCCAUGUGCUCGUCUUAUAAGGUACUGUGACGAAAGUCACGGUACC [Mat - Sensor, turn-off var - Eli Mod - D92] (Eterna round: R97, puzzle: Sensor, turn-off variant 1) |  |  |  | 16.4 |  | 12.9
7 | CAGUACUGAGGAUAUACAUGAGGAUCACCCAUGUUAGAGAUACUAGUGAGGUCGAUUAGUAGAAGGCAGUACUG [Mat X3R4 m24] (Eterna round: R97, puzzle: Exclusion 3) |  |  |  | 557 |  | 44.9
8 | UUGUUGUAUGUAGGAUAUGCAUAUUAUUAUUAUGCAGAAGGACAUGAGGAUCACCCAUGUAUAUUAUUAUUAUAUAUUAUAUAU [Title] (Eterna round: R96, puzzle: Exclusion NG 1) |  |  |  |  | 23.5 | 
9 | UACAUGAGGAUCACCCAUGUUUUGUCGUGUUUGGUACCCGUUUAGGAUAUCGUGUUAUUGGAUCGCGAGAAGGAGAGUAUCUUU [Excl-NG3-LRO08] (Eterna round: R96, puzzle: Exclusion NG 3) |  |  |  | 26.8 | 26 | 31.7
10 | UUUUAAUAUGAAGGAUAUACUUAACAUGAGGAUCACCCAUGUGGUGUUGUGAGUGAGUGAGUUUAGUAGAAGGUCAAUUCUUUU [JMF's solution 89] (Eterna round: R96, puzzle: Exclusion NG 2) |  |  |  | 563 | 442 | 366
11 | GGAUCACAUGUCAGGAUAUCCGGGCAGAGUGGCCAGGAGAAGGGACAUGAGGAUCACCCAUGUUGCUUAAAAUU [Bierorerqu] (puzzle: Brourd's mod of Exclusion 4) | 34.8 | 69.9 | 157 |  |  | 
12 | AUUAAUCAGCAGGAUAUAAGUAUCUGAUGGUGGUUAGAAGGGCUGACAUGAGGAUCACCCAUGUGCUCUUCGUG [Beusbi] (puzzle: Exclusion 6) |  | 11.1 |  |  |  | 
13 | UAGAUGGGAGGAUAUACGUAGAUGCAGAUUCGUGUGGUGCUACAUGAGGAUCACCCAUGUAGAAGGCCCGUCUU [JL-ex2-2.24 Mayanne mod] (puzzle: Exclusion 2) |  | 15.4 |  |  |  | 
14 | UAUUAGCAAGCGAGAUCCCACAUGAGGAUCACCCAUGUAAUAAAGCAUCCAGAAUUACUGGGUGCAGCUCGUCUUAU [Winner reversed engineered 11] (Eterna round: R97, puzzle: Sensor, turn-off variant 1) |  |  |  | 32.7 |  | 31
15 | GGGUUUGGAGGAUAUACAUGAGGAUCACCCAUGUACCCGGGCCCUAUUGGGUUUGGGUGUAGAAGGCCGGGCCC [-33.9, -31.3 kcal, A 19%, 5bbis,5b] (Eterna round: R97, puzzle: Exclusion 3) |  |  |  | 20.4 |  | 17.7
16 | GCAGGUUAAGUCAGGAUAUACCUAUGGAUACAUAGGUAGAAGGGACAUGAGGAUCACCCAUGUGACUCGCCUGC [Fiskers BMX 4 - 61] (puzzle: Brourd's mod of Exclusion 4) |  | 25.6 |  |  |  | 
17 | ACUAGUCAUGAGGAUAUGCGAGCCAACGGGCGAGCAGAAGGCGUGACAUGAGGAUCACCCAUGUCAGUUCGCGA [eternacac ex6r4 sub31] (Eterna round: R97, puzzle: Exclusion 6) |  |  |  | 21.9 |  | 17.4

Row | Sequence | apparent KD of MS2 coat protein [1] [nM] | apparent KD of MS2 coat protein [2] [nM] | apparent KD of MS2 coat protein [3] [nM] | apparent KD of MS2 coat protein (input ligand: FMN 200 uM) [nM] | apparent KD of MS2 coat protein [4] [nM] | apparent KD of MS2 coat protein (input ligand: none) [nM]
18 | GUCAUCAAACAUGGGUUAAACAUGAGGAUCACCCAUGUUAUCAAGUUUUUUGCUCGUCUUAUAAUAAGUUUGAUGAC [Antenna 12 - Jieux - Sensor, turn-off variant 1] (Eterna round: R97, puzzle: Sensor, turn-off variant 1) |  |  |  | 35.7 |  | 41
19 | ACUGGUGCAGGAUAUACAUGAGGAUCACCCAUGUGAUCAGCAGUCCUCGGACUGCAAUGUAGAAGGGCACCAGU [E3/1-D1] (Eterna round: R97, puzzle: Exclusion 3) |  |  |  | 105 |  | 804
20 | CGGUGCUCGUGGAAACAUGAGGAUCACCCAUGUUGAGUUAGCGAGGAUAUCGGUAACACAUGUCACGAGAAGGCGCGAACCAGA [Ex NG3 #32] (Eterna round: R96, puzzle: Exclusion NG 3) |  |  |  | 18.7 | 9.96 | 14.9
21 | GAUUAUGCGAGCUUUAGGGACAUGAGGAUCACCCAUGUUCGUCUUAUUAAUCUGGGUACGCUAACAUACCUAAAUCU [JMF 41] (puzzle: Sensor v3, turn-off variant 1) | 28.5 | 40.7 | 26.7 |  |  | 
22 | ACAUGAGGAUCACCCAUGUAGACAGCUGCAACCGGUGAAAGACAGGAUAUGUGACGGCACAGGGAACAGAAGGGUCAAAGAAAA [Ceatasoes] (Eterna round: R96, puzzle: Exclusion NG 3) |  |  |  | 21.2 | 22 | 30.9
23 | CUGUGUCCGCAGGAUAUGUCAUCCUGAAGGAUCACAGAAGGGCGGACAUGAGGAUCACCCAUGUGAGCCAAAGA [EX6 A.11] (Eterna round: R97, puzzle: Exclusion 6) |  |  |  | 16.7 |  | 17.9
24 | UCGAUGUGAGGAUAUAUUUUUAUUAGUCCUUAUGUUUUAUAACUUGAGGAUCACCCAAGUAGAAGGCGCGACGU [JR_Ex2_Sub061] (Eterna round: R97, puzzle: Exclusion 2) |  |  |  | 32.6 |  | 34.6
25 | CUGAGCUGAGGAUAUACAUGAGGAUCACCCAUGUGUUAGAGCUUGCGUACAGGCAGAUGUAGAAGGCAGUUCGG [JL-ex3-3.33 Brourd mod] (puzzle: Exclusion 3) |  | 14.5 |  |  |  | 
26 | UACAGUCGAGGAUAUACGAUCGUGCUUCGGCACGUAAGAUCACAUGAGGAUCACCCAUGUAGAAGGCGACUGUA [Mod 9 - Jieux - Exclusion 2] (Eterna round: R97, puzzle: Exclusion 2) |  |  |  | 226 |  | 35.1
27 | GGCCCUAAGGUCAGAUCCACAAGCUUUUUGCUCGUUUUAACAUGAGGAUCACCCAUGUCUAGUGGAUUUGAUCCUCA [Sensor v3, turn-off variant 2 (MOD of Indiso v.5)] (puzzle: Sensor v3, turn-off variant 2) | 36.2 | 14.5 | 41.3 |  |  | 
28 | AACUGGACAGGAUAUGUUCUUGAGCACUUGAGGAUCACCCAAGUCAUCAAGAACUCAGGCACAGAAGGGUUUAUGC [salish99_ex5_r4_003] (Eterna round: R97, puzzle: Exclusion 5) |  |  |  | 19 |  | 13.4
29 | UAUUAGUAAGGAUAUGAGUCGUAGAACGAAAGUACUACGUCUCAGAAGGUACAUGAGGAUCACCCAUGUUCAUU [Mod of Fisker 3 - Jieux - Exclusion 4] (Eterna round: R97, puzzle: Exclusion 4) |  |  |  | 21.8 |  | 13.5
30 | GAUCAUGCAGGAUAUACAGUAUCCAUGAAAACAUGGAUCAAACAUGAGGAUCACCCAUGUAGAAGGGCAUGAUC [Omei Ex2 A23] (Eterna round: R97, puzzle: Exclusion 2) |  |  |  | 19.1 |  | 17.9
31 | AAGGGUGCUUUCGGAACGACAUGAGGAUCACCCAUGUAGACUGAGGAUAUCUACUUCUAAGGACGGGAGAAGGCAGUGUAAUGC [Ex NG3 #69] (Eterna round: R96, puzzle: Exclusion NG 3) |  |  |  | 47.8 | 28.3 | 42.6
32 | GGUGCGUAUGUGAGGAUAUGCUGGUCCUUGGAUCUGCAGAAGGCACAUGAGGAUCACCCAUGUGGUGUCGUACC [salish99_Bmod_Ex4_024] (Eterna round: R96, puzzle: Brourd's mod of Exclusion 4) |  |  |  | 105 | 411 | 506
33 | AGCUAGUCAGGAUAUUCUAAUAAUUACAUGAGGAUCACCCAUGUGAAUGGACAAGGGUGUGAAGAAGGGACUAGCG [Omei Ex5 A9] (Eterna round: R97, puzzle: Exclusion 5) |  |  |  | 429 |  | 1230
34 | AAUAAGUGAGGAUAUACGUCUGGACCCGGGAGGGCUAUAUAACAUGAGGAUCACCCAUGUAGAAGGCACAAUAA [Excls2-IV] (puzzle: Exclusion 2) |  | 16.2 |  |  |  | 
